In US20230227571A1 (University of Pennsylvania, published 2023):

What was measured:
[1] = target: T1, human C5 (purified human complement C5, Complement Technology #A120; also C5 in normal human serum) (human, UniProt P01031 19-673; P01031 678-1676); test: direct ELISA, plate coated with purified human C5, serially diluted mAb
T1 construct: domain: β chain;domain: α chain; Purified plasma protein bought from Complement Technology; also called hC5
Excerpt: Direct antigen binding ELISA in which mAbs are serially diluted across microtiter plates coated with purified human C5.

[2] = target: T1, human C5 (purified human complement C5, …); test: ELISA, plate coated with human C5, anti-human IgG4-HRP detection
Excerpt: A plate was coated with human C5.

T1 sequence (P01031 19-673 limits assumed, chain 1 of 2): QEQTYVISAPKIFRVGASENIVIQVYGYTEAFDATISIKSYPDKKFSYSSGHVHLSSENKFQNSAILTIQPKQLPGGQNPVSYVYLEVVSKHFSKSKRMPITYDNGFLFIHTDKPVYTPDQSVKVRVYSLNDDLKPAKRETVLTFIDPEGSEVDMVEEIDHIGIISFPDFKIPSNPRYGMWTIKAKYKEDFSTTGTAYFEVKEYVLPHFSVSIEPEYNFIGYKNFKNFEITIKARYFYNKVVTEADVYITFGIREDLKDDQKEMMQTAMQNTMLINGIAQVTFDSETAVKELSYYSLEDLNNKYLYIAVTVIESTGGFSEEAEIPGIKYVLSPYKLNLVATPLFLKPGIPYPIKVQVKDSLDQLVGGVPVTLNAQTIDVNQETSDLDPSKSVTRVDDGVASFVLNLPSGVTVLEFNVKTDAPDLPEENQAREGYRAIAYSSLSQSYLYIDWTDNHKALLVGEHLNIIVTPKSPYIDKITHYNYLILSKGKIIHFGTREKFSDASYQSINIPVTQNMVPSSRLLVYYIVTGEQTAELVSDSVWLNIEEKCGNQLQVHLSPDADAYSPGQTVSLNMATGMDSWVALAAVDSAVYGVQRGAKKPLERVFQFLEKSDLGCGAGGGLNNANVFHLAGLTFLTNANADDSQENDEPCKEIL
T1 sequence (P01031 678-1676 limits assumed, chain 2 of 2): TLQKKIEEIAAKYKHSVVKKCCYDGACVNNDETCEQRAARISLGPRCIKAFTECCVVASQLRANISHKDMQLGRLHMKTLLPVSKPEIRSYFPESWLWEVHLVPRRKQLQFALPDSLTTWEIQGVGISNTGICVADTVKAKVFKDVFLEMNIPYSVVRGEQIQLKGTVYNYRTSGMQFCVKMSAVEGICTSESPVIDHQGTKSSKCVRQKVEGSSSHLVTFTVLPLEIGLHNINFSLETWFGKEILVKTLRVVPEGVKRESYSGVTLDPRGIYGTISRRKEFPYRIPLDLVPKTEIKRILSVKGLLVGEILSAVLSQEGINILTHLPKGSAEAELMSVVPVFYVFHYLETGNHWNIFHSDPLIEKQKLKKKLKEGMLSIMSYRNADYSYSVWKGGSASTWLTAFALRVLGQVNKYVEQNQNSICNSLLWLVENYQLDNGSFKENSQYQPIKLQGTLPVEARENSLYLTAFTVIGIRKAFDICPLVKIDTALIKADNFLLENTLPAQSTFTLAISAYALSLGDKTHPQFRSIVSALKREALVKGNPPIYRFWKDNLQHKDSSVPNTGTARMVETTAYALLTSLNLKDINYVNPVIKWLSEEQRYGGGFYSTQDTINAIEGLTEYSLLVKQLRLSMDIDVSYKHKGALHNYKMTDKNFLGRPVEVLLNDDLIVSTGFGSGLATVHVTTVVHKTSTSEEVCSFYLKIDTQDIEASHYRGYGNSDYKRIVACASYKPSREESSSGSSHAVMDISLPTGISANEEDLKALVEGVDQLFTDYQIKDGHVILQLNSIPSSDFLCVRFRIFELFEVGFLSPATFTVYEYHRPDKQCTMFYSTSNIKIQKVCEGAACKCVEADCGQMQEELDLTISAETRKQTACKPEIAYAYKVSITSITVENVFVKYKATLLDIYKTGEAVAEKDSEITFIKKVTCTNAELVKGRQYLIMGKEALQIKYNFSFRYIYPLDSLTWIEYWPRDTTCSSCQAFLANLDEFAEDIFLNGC

Binder	binding result [1]	binding result [2]
anti-human C5 mAb 8E1 (antibody, V domains shown, Murine hybridoma mAb; entries may include the leader peptide) VH: QVQLKESGPGLVAPSQSLSITCTVSGFPLNNYGIHWVRQPPGKGLEWLAVIWSDGRTTYNSALNSRLSISKDNSKSQVFFKMNSLQTDDTAMYYCARHDGRGDYSMDYWGQGTSVTVSS VL: ELVMTQSPASLVVSLGQRATISCRASKGVSTSVYSYMHWYQQKPGQPPKLLIYLASNLESGVPARFSGSGSGTDFSLNIHPVEEEDAATYYCQQSGELPLTFGAGTKLELKR	binds	–
humanized 2G1 (VH-11801/VL-1901) (antibody, V domains shown, Human IgG4 mAb with S228P, expressed in CHO cells) VH: QVQLVQSGAEVKKPGASVKVSCKASGYTITDYNLDWVRQAPGQGLEWMGDISPNYGYTIYNQKFKDRVTMTTDTSTSTAYMELRSLRSDDTAVYYCARRDIRYSGNSYKWYFDVWGQGTMVTVSS VL: DIQLTQSPSFLSASVGDRVTITCRTSKSISKYLAWYQQKPGKAPKLLIYSGSTLQSGVPSRFSGSGSGTEFTLTISSLQPEDFATYYCQQHNEYPYTFGQGTKLEIKT	–	binds
humanized 2G1 (VH-16901/VL-1901) (antibody, V domains shown, Human IgG4 mAb with S228P, expressed in CHO cells) VH: QVQLVQSGAEVKKPGSSVKVSCKASGYTITDYNLDWVRQAPGQGLEWMGDISPNYGYTIYNQKFKDRVTITADESTSTAYMELSSLRSEDTAVYYCARRDIRYSGNSYKWYFDVWGQGTMVTVSS VL: DIQLTQSPSFLSASVGDRVTITCRTSKSISKYLAWYQQKPGKAPKLLIYSGSTLQSGVPSRFSGSGSGTEFTLTISSLQPEDFATYYCQQHNEYPYTFGQGTKLEIKT	–	binds
anti-human C5 mAb 9G6 (antibody, V domains shown, Murine hybridoma mAb; entries may include the leader peptide) VH: QIQLVQSGPELKKPGETVKISCKASGYTFTEYPMHWVKQAPGKSFKWMGILYTDTGEPTYAEEFRGRFAFSLETSASTAYLQINNLKNEDTATYFCVHSGYVGYWGQGTTLTVSS VL: DIQMTQSPASLSASVGETVTFTCRASEIIYSYLVWYQQKQGKSPQLLVSNAKTLAEGVPSRFSGSGSGTQFSLKINSLQPEDFGSYYCQHYYGNPPTFGGGTKLEIKR	binds	–
anti-human C5 mAb 11C5 (antibody, V domains shown, Murine hybridoma mAb; entries may include the leader peptide) VH: EVQLVESGGGLVKPGGSLKLSCAASGFTFTTYAMSWVRQTPEKRLEWVATISAGGTYTYYSDNVKGRFTISRDNAKNNLYLQMSHLKSEDTAMFYCARDPDYYGRSPFAYWGQGTLVTVSA VL: EIVLTQSPATLSVTPGESVSLSCRASQSISNNLQWYQQKSHESPRLLIKYASQSISGIPSRFSGSGSGTDFTLSINSVETEDFGMYFCQQSNSWPLTFGGGTKVELKR	binds	–
